Experimental data reported in the supplement of paper PMC9170038.

System: K4 kissing-loop RNA reporter
Experiment: apparent KD of K4 kissing-loop reporter; higher = weaker reporter binding
Conditions: Eterna round: R107
Procedure: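 RNA-MaP round R107: designed RNA switches with theophylline, tryptophan, arginine or FMN aptamers are transcribed on-chip within common flanks. They are titrated with a labelled K4 kissing-loop RNA reporter in RNA-MaP buffer (100 mM Tris pH 7.5, 80 mM KCl, 4 mM MgCl2), without ligand or with the indicated ligand. Median apparent KD per design.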

[1] = input ligand: theophylline 20 uM
[2] = input ligand: tryptophan 2.4 mM
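Further: bound reporter read as fluorescence of individual clusters on recovered sequencing chips by microscopy, with normalized cluster intensities fitted with a binding model.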

Sequence	apparent KD of K4 kissing-loop reporter (input ligand: FMN 200 uM) [nM]	apparent KD of K4 kissing-loop reporter (input ligand: arginine 13.2 mM) [nM]	apparent KD of K4 kissing-loop reporter (input ligand: none) [nM]	apparent KD of K4 kissing-loop reporter [1] [nM]	apparent KD of K4 kissing-loop reporter [2] [nM]
UGCGCUAUGUCCUAAAACGUCCUCCGGGAUACCAGAGUCUUUUUAUUCCCUUGGCAGCUUGAGUGAUGUUUGAUGCCGUUCUUGU [srrevmullin]	364	215	366	287	315
UUCGUCGCGCAUGAUACCAGCGAGAUUUAACGCCGAAUCCUCACGCAGUGAUGUUGCACCCGCCCUUGGCAGCAUAGCCGGUUAC [theeternabot_sameState_KL_Theo_B_13]	250	304	328	344	199
CUUGGAAGGACGGCCGCCACUGGGCAGUGAUGUUGCCCGACCAGGUAACGCAGUGAUGUUGCGACCAGGACCGGGUCCUAGGAAU [Exclusion Tryptophan B GF 24]	161	140	155	136	105
UGUGAGCUGUCGACAAAAGUCGACUAAAACUAGGAUAUGACGAAAGUCAGAAGGAGUCAAUAAUGGAGUGAUGUUCCUGCUCACU [FmnA 9 U31+A55]	277	367	414	386	331
UGAUACCAGACUGAUACCAGCUAGUGAUGUUAGCUGAAAUCAGGGUCAAAGACCCUGUCUAGCCCUUGGCAGCAGUCUGGUAUCU [TheoBX 9 #SwitchBubble #StaticStem]	107	93.8	98.3	133	91.5
AAUGUACAGGGAAGGAGCGUAGUCCAGUGAUGUUGGAGUUAAAUACCAGUGAUGUUGGUUAUACAGGUAGGUCGCCCUAAAGUGC [Exclusion Arginine B Gf 4]	87	65.3	80.9	84.3	76
ACUUGAGCACAUAGCACACCAAGCAGUAGGUAGGAUAUCCGGCUUAGGAGAAGGACCAUGCAGUGAUGUUGCAUGCUCCUCCAUG [Zaribies]	258	95.8	76	92.3	99.9
CAGAACUUGUAUAUAGGGUAUAUAAGAGAUACCAGUCAAAUUAAAGACCCUUGGCAGCUCAGGCGAGUGAUGUUCGCAGGCUAAC [Exclusion Theophylline A GF 17]	112	111	113	133	91.1
CGGCCGUUAUGAGAUACCAGAGUGGCGACCAGUGAUGUUGGUCGACGCUUGCGGUCGUCUCUCCCUUGGCAGCUUAGUACGAAAG [Inisar]	97.4	88.2	91.8	73.8	91.3
GUAGAUAGGCUACAUCUCUAGUCUAAACACUAGGAUAUCAGGAAACUGAGAAGGAGUGUCAUUGGAGUGAUGUUCCAAGAAUAAU [KL-SSFMN-A17]	166	195	185	225	167
CCACAAUAUGGAAGGAGCGCCAGUGAUGUUGGUGCUUGCUUUAGGUAAGACCGGCCUAUUUGGCAGGUAGGUCGCCAUAUUCAAC [Ageat]	103	89.5	97.7	89	97.2
UACUAUAGUGAUGUUAUAGAUAAACCAGAUACCAGUGUAACAUAACACCCUUGGCAGCUGAUGAGGGAACUAUUGAAAACAAUAG [AstroSTH-A#7newdesignED4.86]	248	203	267	223	217
UUUUAAAUAUCUGAUACCAGAGCGAAUAUAUGUAGUGAUGUUAUAUACAAAAUAAAUAAGCUCCCUUGGCAGCAGUAUUAAUUUU [Astros-ExyTheB#?#ED14.66]	1020	829	919	961	968
UACUAUAGUGAUGUUAUAGAUAAACCAGAUACCAGUGUAACAUAACACCCUUGGCAGCUGAUGAGGGAAGAUAUCAAAAGAUAUC [AstroSTH-A#9newdesignED4.70]	218	218	202	247	199
AAAAUAAAUAGCAGUCAUGGAGUGAUGUUCCGAGGACCGGUACGGCCGCCACUCGACCAUCAUAAGAUGGAUGGCGAAGACUGCA [#SwitchBubble 24 #K4Early]	515	544	483	445	864
AUGACUCAAUAGUGAGUGAUGUUCACUGGACGAGGACCGGUACGGCCGCCACUCGAGAGUGGUGGACACUGUGUCACUGAGUCAU [Tryp A Ex t1]	180	166	154	194	496
GGGAACUCUUACGAUACCAGCCGGAGUGAUGUUCCGCGCUUGGACGUAGUAACCCGCACCGGCCCUUGGCAGCGUGGAUCUUAUA [Esbedi]	89.9	73.5	73.9	82.7	83.1
GGGUUGAGCGGAAGGAGCGGCUGAACCAGUGAUGUUGGUUAAUCCAAGUGAUGUUGGAAAAGCCAGGUAGGUCGCCGCUUUAUCC [Same State Arg B GF 3]	979	533	1180	965	774
UAAAUCACACGAGAUACCAGCCAAACCGAACUUGAGCACUAUAGUGAUGUUAUAUUGCGAGGCCCUUGGCAGCUCAAUAGAACAA [theeternabot_sameState_KL_Theo_B_11]	213	174	190	145	182
AUAUCUGAUAGCAGUGAUGUUGCUUCAGAUACCAGACGAGAUCAUGUCCCUUGGCAGCUGACACGGCACGUGCUAGGUUAGAUGA [Theo A Ex t2]	101	92.6	101	103	101
UCUCCAAAGUCGGCCGCCACUCCGGGCCCUAUAAAUGGGCGCAGUGAUGUUGCGGCUAGGCCUCUGAGGACCGGGACUUUGUAGA [Estiorquin]	75.5	55.7	31.3	129	164
GGCACUUUUGGUAGAAAACAUCUACCUCUAUAGGAUAUGCCGAAAGGCAGAAGGAUAGACCUACAGAGUGAUGUUCUGCGUGCCU	874	143	447	356	283

Sequence	apparent KD of K4 kissing-loop reporter (input ligand: FMN 200 uM) [nM]	apparent KD of K4 kissing-loop reporter (input ligand: arginine 13.2 mM) [nM]	apparent KD of K4 kissing-loop reporter (input ligand: none) [nM]	apparent KD of K4 kissing-loop reporter [1] [nM]	apparent KD of K4 kissing-loop reporter [2] [nM]
GGUAGCAUGGCGGCCGCCACUGAGGCCCUAUGCGAGUCCUCUACAACCUAGUGAUGUUAGGCGUCCAGGACCGGGCCAUGCUACC	95.7	44.1	71.2	58.4	93
AAACGUUGGUGCGAUACCAGCUGGUCGGAAACGACCUUGCUGGAGUGAUGUUCCAAGUAAAGCCCUUGGCAGCGCACCGACGAAA [MAT - Same State Theophlline B - Mod of Eli - D23]	122	53.6	43.2	135	93.9
CCCGCGGCGGGAAACCGUCGCGGGAAGGAAGGAGCGGCGAAGAAGCCAGGUAGGUCGCCUAUUGACAGUGAUGUUGUUAUAUAGA [#11]	226	263	160	292	179
UUUCGGUUCUGAGGAUAUUCGGACAAAUAUAGUGAUGUUGUAUAAGGAGGAGGGUGUUGGCAGUGCGGAGAAGGCAGACCAGGAU [ExFMNB.W]	853	557	1170	878	546
GUUACGCAUGGAAGGAGCGCGAAUUUAAUUAGUGAGUGAUGUUCACAUAAAAUAUAUAAUACGCAGGUAGGUCGCCAUGUGUAAC [Ex Arginine B K4 1]	80.8	83.1	79.3	82.8	75
UGUCAUUGGUCUGAUACCAGUUAGACCGAUAGGUCAAAACUGGAGUGAUGUUCCUAAAAUAACCCUUGGCAGCAGACCGAUGACU [TheoBS 2 #SwitchBubble #StaticStem]	1380	601	1010	856	954
GUAGGAUGAGGAGGAGGAUGAAUUACUGAAGGAGCGCAAAGAAAUGCAGGUAGGUCGCGGUAAAGAAGUAUAGUGAUGUUAUAUA [SSArgA.E]	400	301	413	426	310
GUAUCGCUAGGAGGAUAUUUCAAUUUGACUCUUUGAGUUAAUACGGAGUGAUGUUCCGUUUUACGGAAAGAAGGCCUAGUGAUAC [FMN B 14]	115	150	192	172	166
AAACGUUGGUCGGAUACCAGCUUGAUCGGAAACGAUCUGCUGGAGUGAUGUUCCAAGUAAAGCCCUUGGCAGCCGACCGACGAAA [MAT - Same State Theophlline B - Mod of Eli - D18]	148	65.1	99.4	95.4	71.6
AAGCAGUCACUCGCAGCCAUCGAAGAUGGUCGAGGACCGGUACGGCCGCCACUCGGAGUGAUGUUCCGAAGACUGCAAAAUAAAA	281	259	282	325	400
GGUGCUGUCUGUGCCGCCCUCCUCGUCCCUCGAGGACCGGUACGGCCGCCACUCGAGUGAUGUUCGGGUAGCCAUCCCUGCUAGC [Bdazzled - #19 Exc. Tryptophan A]	647	666	680	590	937
GGCAUGGUGACGCGGCUGCCAUACGCUUGGGAGGAUAUGUUUCGUGACAGAAGGCCCAGUGAUGUUGGGUCUGUUCAAAAGGACU [Arisus]	659	160	170	169	150
AUUUAAUGUAUAGAUUAUAUACAUUAUUCAGAGGAUAUGCAUUGAAGCAGAAGGCUGGGUGUAGUGAUGUUGCAGUUUUAAUUUA [whbob_SS_FMNA__2th173]	150	254	152	224	122
GGUAGCAUGGCGGCCGCCACUCUAUGCGAGUGAUGUUCGCAGCUCAAAGAGCACCCGGGAACAGAGAGGACCGGGCCAUGCUACC	294	228	261	302	213
GAUGAUCGCGCGGCCGCCACUGGUCAGUGAUGUUGACAUUAAUGCGCCGAGUAGUAACGGCGCAACAGGACCGGGCGCGAUGUAG [#11 K4 Tryptophan B Same State]	165	160	143	185	171
CGCAGUGAUGUUGCGAGUAGCUACAGGGAAGGAGCGUGCUAGAGCACAGGUAGGUCGCCCACGCAGUGAUGUUGUGUUAAAGGGU [Exclusion Arginine A GF 12]	141	116	123	149	117
GAGAAUCUAAUUGAUACCAGAGUAAGAACCAGUGAUGUUGGAAGAUUCCCUAAUAAAUAACUCCCUUGGCAGCGGAAGAGAAUAG [Totally accidental 2]	142	230	176	327	172
UUUUUCCCGCAGGAUACCAGCAACCAAACGUCAUGCGAAGUGAUGUUUCGCUUACGGUAGUGCCCUUGGCAGCCUUCGGUAGGGU [thingy]	196	161	183	119	161
ACGAUUUACAGAAGGAGCGUGUAUUUAUCUACAAUUUUCUUAGCGAGUGAUGUUCGUUAUACACAGGUAGGUCGCUGUAUAUCGA [JR_ExcArginiB_Sub013]	185	214	201	199	174
ACCAUCAAAGAUGGCCAGGACUCCGCUGAUACCAGAGUGGAAACACUCCCUUGGCAGCAGGUGAGUGAUGUUCACAGUCCAUGGA [Omel KL Theo A SS B v4]	374	348	421	380	341
GUACGCUCUCGAGUGAUGUUCGGUAAUAGUUAGGAUAUCGCUUUUGCGAGAAGGAACUGAAUGAGGAAACUCGUUCUGAGUGUAC [FMN A 18]	618	183	342	398	239
UGUAUGUGAUUUGAUACCAGACCAGCUGGUGGAAACUGAGUGAUGUUCAGUUAGGUUUGGGUCCCUUGGCAGCAAAUCGCAUACU [KL-SSTheoB28]	152	119	127	134	138
